{
  "source": "the supplement of paper PMC12455559",
  "key": {"[1]": {"assay": "melting temperature (DSF); higher = more thermostable", "summary_of_the_method": "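Values are melting temperatures from differential scanning fluorimetry. Candidate enzymes were expressed in E. coli C41(DE3), purified on nickel beads and freed by SUMO protease cleavage. In sealed PCR plates on a Bio-Rad CFX96, 45 μL enzyme (0 to 0.3 mg/mL) was combined with 5 μL 5X Sypro Orange. Fluorescence was recorded from 25 °C for 250 cycles, rising 0.3 °C per cycle at a ramp of 0.3 °C/s.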"}, "[2]": {"assay": "purified protein yield per well (BCA); higher = higher soluble expression", "summary_of_the_method": "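Expression was done in E. coli C41(DE3), using 2 mL autoinduction cultures with 100 µg/mL kanamycin incubated at 37 °C for 2 h and at 18 °C for 40 h. Protein was purified on Ni-charged magnetic beads and released by SUMO protease cleavage. Yield of purified protein per well was measured with the Pierce Rapid Gold BCA kit; values below 25 ug (0.1 mg/mL) are below detection.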"}, "[3]": {"assay": "PET hydrolysis, aromatic products released after 48 h (umol product/mg enzyme); higher = more PET depolymerization activity", "summary_of_the_method": "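Sealed plates containing 3.5 mg PET (amorphous film or crystalline powder), 450 μL buffer and 5 μg (50 μL) tagless candidate enzyme were held 48 h at 40 or 60 °C with no shaking. Supernatants were then read at 260 and 280 nm against buffer blanks. The aromatic product detected this way, per mg enzyme, defines PET hydrolysis activity.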"}, "[4]": {"settings": "substrate: aFilm, 40 °C, pH 4.5"}, "[5]": {"settings": "substrate: aFilm, 40 °C, pH 5.5"}, "[6]": {"settings": "substrate: aFilm, 40 °C, pH 6.5"}, "[7]": {"settings": "substrate: aFilm, 40 °C, pH 7.5"}, "[8]": {"settings": "substrate: aFilm, 60 °C, pH 4.5"}, "[9]": {"settings": "substrate: aFilm, 60 °C, pH 5.5"}, "[10]": {"settings": "substrate: aFilm, 60 °C, pH 6.5"}, "[11]": {"settings": "substrate: aFilm, 60 °C, pH 7.5"}, "[12]": {"settings": "substrate: cryPow, 40 °C, pH 4.5"}, "[13]": {"settings": "substrate: cryPow, 40 °C, pH 5.5"}, "[14]": {"settings": "substrate: cryPow, 40 °C, pH 6.5"}, "[15]": {"settings": "substrate: cryPow, 40 °C, pH 7.5"}, "[16]": {"settings": "substrate: cryPow, 60 °C, pH 4.5"}, "[17]": {"settings": "substrate: cryPow, 60 °C, pH 5.5"}, "[18]": {"settings": "substrate: cryPow, 60 °C, pH 6.5"}, "[19]": {"settings": "substrate: cryPow, 60 °C, pH 7.5"}},
  "note": "± gives the standard deviation of the averaged measurements.",
  "data": [
    {"sequence": "ADNPYQRGPDPTRASVAAVNGPFVNTSVSVPTGYGFNGGRIYYPTDTSQGTFGAIAISPGYTALFSAELAWMGPWLASHGFVVIGIETNSRNDFDTARGTQLLAALDYLTQQSPVRDRVDPNRLAVSGHSMGGGGALSAAIRRSSLKAAVGITPYSPSQNLANDRVPTMVISGQADTVVTPSYALGLYNSLPASTESVYLEVAGGDHGFMVGRSNPVLIRTMLPFLKMFVDNDSRYSQFLCPLLDSSGVVTYRSTCPLLPTNPTTPPPTGTPTPTPTSTPTPTPTPTTPPPSGSANE [ESM091]", "values": [
      {"measurement": "melting temperature", "setting": "[1]", "value": 62.5, "unit": "C"},
      {"measurement": "purified protein yield per well", "setting": "[2]", "value": 336, "unit": "µg"},
      {"measurement": "PET hydrolysis", "setting": "[3]; [4]", "value": "< 3"},
      {"measurement": "PET hydrolysis", "setting": "[3]; [5]", "value": "< 3"},
      {"measurement": "PET hydrolysis", "setting": "[3]; [6]", "value": "< 3"},
      {"measurement": "PET hydrolysis", "setting": "[3]; [7]", "value": "< 3"},
      {"measurement": "PET hydrolysis", "setting": "[3]; [8]", "value": "< 3"},
      {"measurement": "PET hydrolysis", "setting": "[3]; [9]", "value": "< 3"},
      {"measurement": "PET hydrolysis", "setting": "[3]; [10]", "value": "< 3"},
      {"measurement": "PET hydrolysis", "setting": "[3]; [11]", "value": "< 3"},
      {"measurement": "PET hydrolysis", "setting": "[3]; [12]", "value": "13.5 ± 0.71"},
      {"measurement": "PET hydrolysis", "setting": "[3]; [13]", "value": "28 ± 1.4"},
      {"measurement": "PET hydrolysis", "setting": "[3]; [14]", "value": 10},
      {"measurement": "PET hydrolysis", "setting": "[3]; [15]", "value": "< 3"},
      {"measurement": "PET hydrolysis", "setting": "[3]; [16]", "value": "< 3"},
      {"measurement": "PET hydrolysis", "setting": "[3]; [17]", "value": "< 3"},
      {"measurement": "PET hydrolysis", "setting": "[3]; [18]", "value": "< 3"},
      {"measurement": "PET hydrolysis", "setting": "[3]; [19]", "value": "< 3"}
    ]},
    {"sequence": "ADNPYQRGPDPTRASVASENGPFANTSVAVPTGYGFNGGRIYYPTDTSQGTFGAIAISPGYTALFSVELAWMGPWLASHGFVVIGIETNSRNDFDTARGTQLLAALDYLTQQSPVRDRVDSSRLAVAGHSMGGGGALSAAMRRSSLKAAVGIAPYSPSSNLATDRVPTMVFSGQADTVVTPSYATGLYNSLPSTTESAYLEVAGADHGFMVGRSNPVLIRTMLPFLKIFIDNDARYSQFLCPLLDTSGVVTYRSTCPLLPTPPTSPTATPTTTPTGPSPTSPPGAASQLVGAQSGRCVDVPNASRANGTRVQLWDCNRQSNQSWTYTSTKQLRVYGDMCLDAAGTGNGAAVQIYGCHGQANQQWNVNSNGTVSNVQSGRCLDVWSTANGAQIQLYDCHGQTNQRFNLTPLA [TEP111]", "values": [
      {"measurement": "melting temperature", "setting": "[1]", "value": 63.1, "unit": "C"},
      {"measurement": "purified protein yield per well", "setting": "[2]", "value": 245, "unit": "µg"},
      {"measurement": "PET hydrolysis", "setting": "[3]; [4]", "value": "< 3"},
      {"measurement": "PET hydrolysis", "setting": "[3]; [5]", "value": "< 3"},
      {"measurement": "PET hydrolysis", "setting": "[3]; [6]", "value": "< 3"},
      {"measurement": "PET hydrolysis", "setting": "[3]; [7]", "value": "< 3"},
      {"measurement": "PET hydrolysis", "setting": "[3]; [8]", "value": "< 3"},
      {"measurement": "PET hydrolysis", "setting": "[3]; [9]", "value": "< 3"},
      {"measurement": "PET hydrolysis", "setting": "[3]; [10]", "value": "< 3"},
      {"measurement": "PET hydrolysis", "setting": "[3]; [11]", "value": "< 3"},
      {"measurement": "PET hydrolysis", "setting": "[3]; [12]", "value": "13 ± 1.4"},
      {"measurement": "PET hydrolysis", "setting": "[3]; [13]", "value": 17},
      {"measurement": "PET hydrolysis", "setting": "[3]; [14]", "value": "15.5 ± 9.2"},
      {"measurement": "PET hydrolysis", "setting": "[3]; [15]", "value": "8.5 ± 12"},
      {"measurement": "PET hydrolysis", "setting": "[3]; [16]", "value": "< 3"},
      {"measurement": "PET hydrolysis", "setting": "[3]; [17]", "value": 5},
      {"measurement": "PET hydrolysis", "setting": "[3]; [18]", "value": "4.5 ± 0.71"},
      {"measurement": "PET hydrolysis", "setting": "[3]; [19]", "value": "< 3"}
    ]},
    {"sequence": "ADNPYQRGPDPTRNSVAAENGPFANTSVSVPSGNGFNGGRIYYPTDTSQGTFGAIAISPGYTALFSAELAWMGPWLASHGFVVIGIETNSRNDFDTARGTQLLAALDYLTQQSTVRNRVDPNRLAVAGHSMGGGGALSAAMRRPSLKAVAGITPYSPSSNLANDRVPTMIISGQADTVVTPSYALGLYNSIPATTESVYLEVAGGDHGFMVGRSNPVLIRTMLPFLKTFVDNDARYTQFLCPLVDNSGVVTYRNTCPLLPPPTGTPTPTPTTPGPTTPPPTTPPPGSASEIVGTQSGRCVDVPNSSRTNGTRVQLYDCNRQTNQTWTYNTSTKQLRVYGDMCLDAAGTGNSAAVQIYACHSQTNQQWNINTNGTISGVQSGRCLDAWNTTNGAQIQLYDCHGQTNQQFRLAAR [TEP115]", "values": [
      {"measurement": "melting temperature", "setting": "[1]", "value": 60.4, "unit": "C"},
      {"measurement": "purified protein yield per well", "setting": "[2]", "value": 113, "unit": "µg"},
      {"measurement": "PET hydrolysis", "setting": "[3]; [12]", "value": 4},
      {"measurement": "PET hydrolysis", "setting": "[3]; [13]", "value": 8},
      {"measurement": "PET hydrolysis", "setting": "[3]; [14]", "value": 7},
      {"measurement": "PET hydrolysis", "setting": "[3]; [15]", "value": 3},
      {"measurement": "PET hydrolysis", "setting": "[3]; [16]", "value": "< 3"},
      {"measurement": "PET hydrolysis", "setting": "[3]; [17]", "value": "< 3"},
      {"measurement": "PET hydrolysis", "setting": "[3]; [18]", "value": "< 3"},
      {"measurement": "PET hydrolysis", "setting": "[3]; [19]", "value": "< 3"}
    ]},
    {"sequence": "ADNPYQRGPDPTRSSVAAVNGPFANTSVAVPTGYGFNGGRIYYPTDTSQGTFGAIAISPGYTALFSVELAWMGPWLASHGFVVIGIETNSRNDFDTARGTQLLAALDYLTQQSPVRDRVDPNRLAVSGHSMGGGGALSAAIRRSSLKAVVGIAPYSPSSNLANDRVPTMVFAGQADTVVTPSYATGLYNSLPATTESAYLEVAGADHGFMVGRSNPVLIRTMLPFLKMFVDNDARYSQFLCPLADNSGVVSYRSTCPLLPTTPTTPPPTPSDTPPPTPSGTPTTPPTTGPPGTASLVVGAQSGRCLDVPNASRANGTRVQLWDCNRQANQQWTYTSTRQLRVYGDMCLDAAGSGNGAAVQIYGCHGQPNQQWTVNANGTISGVQSGRCLDVWSTANGAQVQLYDCHGQTNQRFTLTPVA [ESM080]", "values": [
      {"measurement": "melting temperature", "setting": "[1]", "value": 61.6, "unit": "C"},
      {"measurement": "purified protein yield per well", "setting": "[2]", "value": 56.6, "unit": "µg"},
      {"measurement": "PET hydrolysis", "setting": "[3]; [12]", "value": 9},
      {"measurement": "PET hydrolysis", "setting": "[3]; [13]", "value": 18},
      {"measurement": "PET hydrolysis", "setting": "[3]; [14]", "value": 9},
      {"measurement": "PET hydrolysis", "setting": "[3]; [15]", "value": 4}
    ]},
    {"sequence": "ADNPYQRGPDPTRSSVAAVNGPFANTSVAVPTGYGFNGGRIYYPTDTSQGTFGAVAISPGYTALFSVELAWMGPWLASHGFVVIGIETNSRNDFDTARGTQLLAALDYLVQQSPVRDRIDPNRLAVSGHSMGGGGALSAALRRPALKAAVGIAPYSPSSNLANDRVPTMVFAGQADTVVTPSYATGLYNSLPTTTESAYLEVAGADHGFMVGRSNPVLIRTMLPFLKMFVDNDARYSQFLCPLADNSGVVSYRSTCPLLPPTSTTPPPIPSDTPPPIPTTPPQTTPPPSNPPGAASLIVGAQSNRCLDVPNASRANGTRVQLWDCNRGTNQSWTYTTNKQLRVYGDMCLDAAGSGNGAAVQIYGCHSQTNQQWNVNANGTISSVQSGRCLDVWSTANGAQVQLYDCHGQTNQRFTLTPLT [ESM101]", "values": [
      {"measurement": "melting temperature", "setting": "[1]", "value": 58.6, "unit": "C"},
      {"measurement": "purified protein yield per well", "setting": "[2]", "value": 149, "unit": "µg"},
      {"measurement": "PET hydrolysis", "setting": "[3]; [12]", "value": 7},
      {"measurement": "PET hydrolysis", "setting": "[3]; [13]", "value": 19},
      {"measurement": "PET hydrolysis", "setting": "[3]; [14]", "value": 8},
      {"measurement": "PET hydrolysis", "setting": "[3]; [15]", "value": 4},
      {"measurement": "PET hydrolysis", "setting": "[3]; [16]", "value": "< 3"},
      {"measurement": "PET hydrolysis", "setting": "[3]; [17]", "value": "< 3"},
      {"measurement": "PET hydrolysis", "setting": "[3]; [18]", "value": "< 3"},
      {"measurement": "PET hydrolysis", "setting": "[3]; [19]", "value": "< 3"}
    ]}
  ]
}
